For data set [1], the target named is T1, periostin (Homo sapiens) (UniProt Q15063).
T1 sequence: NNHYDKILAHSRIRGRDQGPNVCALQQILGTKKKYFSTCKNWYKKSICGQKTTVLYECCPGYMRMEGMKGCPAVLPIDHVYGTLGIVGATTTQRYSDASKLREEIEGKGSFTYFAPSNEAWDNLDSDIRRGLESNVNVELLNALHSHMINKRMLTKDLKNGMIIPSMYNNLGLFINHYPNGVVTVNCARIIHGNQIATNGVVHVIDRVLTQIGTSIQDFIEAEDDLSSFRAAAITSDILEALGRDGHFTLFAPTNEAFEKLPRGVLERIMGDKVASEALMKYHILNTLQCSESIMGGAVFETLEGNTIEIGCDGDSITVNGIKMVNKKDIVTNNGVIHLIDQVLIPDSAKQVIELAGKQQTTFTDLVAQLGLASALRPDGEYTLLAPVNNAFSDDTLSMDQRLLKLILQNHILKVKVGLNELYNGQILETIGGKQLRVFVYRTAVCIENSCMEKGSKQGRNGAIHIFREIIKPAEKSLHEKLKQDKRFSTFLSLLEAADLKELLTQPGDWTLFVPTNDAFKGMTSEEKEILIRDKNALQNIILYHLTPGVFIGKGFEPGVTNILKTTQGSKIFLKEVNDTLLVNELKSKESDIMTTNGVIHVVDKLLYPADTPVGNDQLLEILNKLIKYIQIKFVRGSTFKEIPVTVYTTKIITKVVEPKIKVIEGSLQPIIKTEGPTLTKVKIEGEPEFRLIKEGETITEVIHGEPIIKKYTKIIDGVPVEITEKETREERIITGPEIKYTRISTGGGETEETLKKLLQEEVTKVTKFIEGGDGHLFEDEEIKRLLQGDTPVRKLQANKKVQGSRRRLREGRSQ
Kind of data set: filter.

Data set [2] concerns the target T1, periostin (Homo sapiens). Kind of data set: cell_activity. The conditions noted are these: BndU at all n [BndU at 6,7,9,14,16,21,22,26,28,31,34,35,44]; MDA-MB-231 adhesion to periostin-coated wells, 100 nM aptamer; control aptamer no effect.

pKd: −log10 of the molar value.

Broadly, the pKd is the Kd on a negative log10 scale, so that one unit is a factor of ten. “GATGTGAGTGTGTGACGAGTCTGGTCCTTCCTGTATTAGATCATATCCTTAGGTATCGTCAACAACAGAACAAGGAAAGG [clone 1 full length]”: the pKd with periostin (Homo sapiens) [1] (BndU at all n of the core [BndU at 20,22,25,28,29,32,34,36,37,41,44,46,49,50,54,56,59], Bmax 80%, same buffer, 37 C) was 9.22. As for “ACGAGTCTGGTCCTTCCTTTGACGACTATTGTTTGGTATCGATCAACAACAA [PNDA-1]”, the pKd with periostin (Homo sapiens) [1] (BndU at all n [BndU at 6,8,11,14,15,18,19,20,27,29,30,32,33,34,37,39,43], Bmax 92%) was 8.55. As to “GATGTGAGTGTGTGACGAGTTGTCGCATGTGCGGTTCAGTCTGGTCCTTCAGCACCGTACAACAACAGAACAAGGAAAGG [clone 8 full length]”, the pKd in the data set with periostin (Homo sapiens) [1] (BndU at all n of the core [BndU at 20,21,23,28,30,35,36,40,42,45,48,49,58], Bmax 81%, same buffer, 37 C) is 8.94.

Turning to “ACGAGTTGTCGCATGTGCGGTTCAGTCTGGTCCTTCAGCACCGTACAACAA [PNDA-3]”, the activity with periostin (Homo sapiens) [2] was found to be 60 % inhibition. This sequence had a pKd with periostin (Homo sapiens) [1] (BndU at all n [BndU at 6,7,9,14,16,21,22,26,28,31,34,35,44], Bmax 95%) of 8.97.

Consider “GATGTGAGTGTGTGACGAGTCTGGTCCTTCCTTTGACGACTATTGTTTGGTATCGGACAACAACAACAGAACAAGGAAAGG [clone 5 full length]”, for which the pKd with periostin (Homo sapiens) [1] (BndU at all n of the core [BndU at 20,22,25,28,29,32,33,34,41,43,44,46,47,48,51,53], Bmax 80%, same buffer, 37 C) was 8.85. For “ACGAGTCTGGTCCTTCCTCCCTAATTGCTGTTGAGGTATCGGCTACAACAA [PNDA-4]”, the pKd with periostin (Homo sapiens) [1] (BndU at all n [BndU at 6,8,11,14,15,18,22,25,26,29,31,32,37,39,44], Bmax 90%) was 9.00. In the data set with periostin (Homo sapiens) [1] (BndU at all n of the core [BndU at 20,22,25,28,29,32,36,39,40,43,45,46,51,53,58], Bmax 78%, same buffer, 37 C), “GATGTGAGTGTGTGACGAGTCTGGTCCTTCCTCCCTAATTGCTGTTGAGGTATCGGCTACAACAACAGAACAAGGAAAGG [clone 17 full length]” showed a pKd of 9.20. As for “ACGAGTCACACGTTGATGACTGGATGGTAGTTAAAGAGGGTGGGGCAACAA [PNDA-2]”, the pKd with periostin (Homo sapiens) [1] (BndU at all n [BndU at 6,13,14,17,21,25,28,31,32,41], Bmax 78%) is 8.13.

In turn, “GATGTGAGTGTGTGACGAGTCACACGTTGATGACTGGATGGTAGTTAAAGAGGGTGGGGCAACAACAGAACAAGGAAAGG [clone 3 full length]” had a pKd with periostin (Homo sapiens) [1] (BndU at all n of the core [BndU at 20,27,28,31,35,39,42,45,46,55], Bmax 72%, 200 mM HEPES, 510 mM NaCl, 25 mM KCl, 25 mM MgCl2, 37 C) of 9.27.

The values are drawn from patent US20150337309.
